Assay results published in article PMC12325603 (Nature Communications, 2025).

Target: the molecule itself
Test: cryo-electron tomography

B1: Munc13C K1494D/K1495D/K1500D (trimer 3xD) (domain or fragment)
chain: not shown
For B1, the “stoichiometry N” value was 6.
